Substitutions are numbered along the chain they refer to. Names and notes keep the numbering of the source.
B1: Anti-C1s antibody hz2-7(H1L2) (antibody, V domains shown)
VH: EVQLLESGGGLVQPGGSLRLSCAASGFTFSNYFMNWVRQAPGKGLEWVSEIRLKFTNYATHYADSVKGRFTISRDDSKSTLYLQMNSLRAEDTAVYYCTRDYGSRNGYFDYWGQGTLVTVSS
VL: DIVMTQTPLSLPVTPGEPASISCRSSKSLLHSNGNTFLYWFLQKPGQSPQLLIYRMSNLASGVPDRFSGSGSGTDFTLKISRVEAEDVGVYYCMQHLEYPYTFGGGTKLEIKR
notes: Humanized, human IgG1 / kappa; also called hz2-7(1L2)
B2: Anti-C1s antibody hz2-8 (H1L2 G80A) (antibody, V domains shown)
VH: QVQLVQSGAEVKKPGASVKVSCKASGFNIKEYYMHWVRQAPEQGLEWMGWIDPENADTIYAQKFQGRVTITADTSTNTAYMELSSLRSEDTAVYYCARSRLFFAYWGQGTLVTVSS
VL: DIQMTQSPKSLSASVGDRVTITCRASQDVRTALDWYQQKPGQSPKLLIYSASYRYSGVPSRFSGSGSGTDFTLTISSLQPEDFATYYCQQQYTTPYTFGQGTKLEIKR
notes: Humanized variant with G80A in HC CDR2 (already in the entry), human IgG1 / kappa
B3: Anti-C1s antibody hz2-8 (H1L2 G80A/T82A) (antibody, V domains shown)
VH: B2 VH with T58A
VL: B2 VL
notes: Humanized variant with G80A and T82A in HC CDR2 (already in the entry), human IgG1 / kappa

target: T1, human C1s mutant M15 (S360N) (human, UniProt P09871 16-688); assay: ELISA, plate coated with human C1s mutant M15: S360N, OD450nm
T1 construct: The entry is the mutant itself
T1 sequence: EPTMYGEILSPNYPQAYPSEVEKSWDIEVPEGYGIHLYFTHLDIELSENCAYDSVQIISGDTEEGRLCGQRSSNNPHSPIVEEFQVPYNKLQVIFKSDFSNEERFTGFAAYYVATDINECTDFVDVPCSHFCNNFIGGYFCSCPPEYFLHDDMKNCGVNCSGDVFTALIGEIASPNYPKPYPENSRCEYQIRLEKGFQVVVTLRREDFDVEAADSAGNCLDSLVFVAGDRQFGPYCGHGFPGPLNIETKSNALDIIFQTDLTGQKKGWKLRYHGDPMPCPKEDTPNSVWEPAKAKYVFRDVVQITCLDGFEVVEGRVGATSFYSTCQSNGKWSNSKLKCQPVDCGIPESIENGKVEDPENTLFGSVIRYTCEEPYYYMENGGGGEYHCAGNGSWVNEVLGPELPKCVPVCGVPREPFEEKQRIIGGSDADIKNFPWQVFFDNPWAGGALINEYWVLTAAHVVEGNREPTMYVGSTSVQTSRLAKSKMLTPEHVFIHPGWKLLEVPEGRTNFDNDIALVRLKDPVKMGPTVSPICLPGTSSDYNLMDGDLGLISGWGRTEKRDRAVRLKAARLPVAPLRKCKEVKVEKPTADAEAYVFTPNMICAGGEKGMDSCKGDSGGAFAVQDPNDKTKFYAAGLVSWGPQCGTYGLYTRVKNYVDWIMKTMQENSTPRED
Procedure: (§1) ELISA was carried out by first coating 96-well plates with 200 ng/well of full-length or truncated C1s proteins overnight. The next morning, plates were blocked with SuperBlock T20 blocking buffer (Thermo Scientific 37536) for 1 h with gentle shaking. Then, various concentrations of anti-C1s antibodies diluted in SuperBlock T20 blocking buffer were added to the plates and incubated for 1 h with gentle shaking. Mouse IgG (Sigma-Aldrich 15381) and human IgG1 (BioXCell BP0297) were used as negative controls. The plates were washed before incubating with HRP conjugated secondary antibodies diluted in SuperBlock T20 blocking buffer (goat anti-mouse IgG (H+L) cross-adsorbed secondary antibody HRP (Invitrogen G-21040) or goat anti-human IgG antibody, HRP conjugate (Millipore AP309P)) for 1 h with gentle shaking. At last, the plates were washed and color developed with ELISA liquid HRP substrate (Sigma-Aldrich), followed by stopping the reaction with addition of 1M H₂SO₄ in the same volume as the ELISA liquid substrate. Bound antibody was measured by absorbance at OD₄₅₀ₙₘ.
(§2) Binding of anti-C1s antibodies to mutants M1-M20 of human C1s was measured by ELISA as described in Example 4, and results are shown in FIGS. 6B-6U. All anti-C1s humanized variants including hz2-7(H1L2), hz2-8(H1L2 G80A) and hz2-8(H1L2 G80A/T82A) maintained strong binding properties to the majority (16 out of 20) of C1s mutants including M1 (FIG. 6B), M2 (FIG. 6C), M3 (FIG. 6D). M4 (FIG. 6E), M7 (FIG. 6H), M8 (FIG. 6I), M10 (FIG. 6K), M11 (FIG. 6L), M12 (FIG. 6M), M13 (FIG. 6N), M15 (FIG. 6P), M16 (FIG. 6Q), M17 (FIG. 6R), M18 (FIG. 6S), M19 (FIG. 6T) and M20 (FIG. 6U).

Binder | EC50
B1 | 3 ng/mL
B2 | 4 ng/mL
B3 | 5 ng/mL

target: T2, human C1s mutant M16 (R368H) (human, UniProt P09871 16-688); assay: ELISA, plate coated with human C1s mutant M16: R368H, OD450nm
T2 construct: The entry is the mutant itself
T2 sequence: T1 sequence with N360S, R368H
Procedure: as §1, §2

Binder | EC50
B1 | 6 ng/mL
B2 | 6 ng/mL
B3 | 9 ng/mL

target: T3, human C1s mutant M4 (P280A & E282K) (human, UniProt P09871 16-688); assay: ELISA, plate coated with human C1s mutant M4: P280A, E282K, OD450nm
T3 construct: The entry is the mutant itself
T3 sequence: T1 sequence with P280A, E282K, N360S
Procedure: as §1, §2

Binder | EC50
B1 | 0.013 µg/mL
B2 | 0.01 µg/mL
B3 | 0.01 µg/mL

Reference: patent US20230051715A1 (MABWELL THERAPEUTICS, published 2023)
